Test results as given in the DeepSol protein solubility set.

Test: soluble on expression in E. coli; label from the status in PepcDB or PDB records

| Sequence | soluble on expression in E. coli |
| --- | --- |
| MAQTIQLANHSEMTIIDNDLHVDVIGNQAHFSFSGLHNKTFTDREVLFEMPFLYEHEANVIGDGFQMLAQTSGTITHPIEIGRCPDNIPPYRVYSQHAPKRYYNYLVIEDSAGYTLFGFTTCRRFAGYFDIQQRNGQWILTAAIDGEHTQVADWEHNQ | not soluble |
| MARCSVCGAPAVAYIRYQRRYLCRDHYLEFVESKVERAIMRHRLVGKGDRVLAAVSGGKDSSTLLAVLSRLSRRIGFHVVALYIHLGIYEYSEKSREASIRLASQLDVPLIVFDLNEVLGAGIPELAKASKRPPCSVCGMVKRYVINAAAVELGVDAVALGHNADDIAVYNLKSFLNQDLEAISKLGVKTESIPGVAVGRVRPLYYVYEKESFLYSLLAGLPFLHEEC | not soluble |
| MARDRNLFKMLVNRLLDRLARLPVGAELGSEGELAAELQASRTTVRAVLTHLAEAGLLSWEGRRKVVLRAPSPSDRFDEGETRPRQELVEEPFLAWVLQGDLPPGTLLHESDLARRLGVPVATVREFLIRFEPFGLIEKQPNRHWVLKGFTRAFAEEMFAVREMFERHALRGLLAATAPGGPLRADLESLRAEHEALSAGPEEELTAFPALDARFHRLLCRAAHNRFILDFSRTISIIVHFHYRWNKRDELRRNRAALNEHLAIVEAVLAGDAPRAAAALDAHLATAYRTLMTSVTWADA | not soluble |
| MARFIAQLLLLASCVAAGQAVTAFLGERVTLTSYWRRVSLGPEIEVSWFKLGPGEEQVLIGRMHHDVIFIEWPFRGFFDIHRSANTFFLVVTAANISHDGNYLCRMKLGETEVTKQEHLSVVKPLTLSVHSERSQFPDFSVLTVTCTVNAFPHPHVQWLMPEGVEPAPTAANGGVMKEKDGSLSVAVDLSLPKPWHLPVTCVGKNDKEEAHGVYVSGYLSQ | soluble |
| MARKKTITKEQILTAAYEVVATEGFSKFTARNIANKMKCSTQPIYLEFKNMDDLRDALFQKIHKYLAKEVFPVKHTGNTIVDLALNYIHFATSESKLYRALYLEEYGGGKKMQEFSYHYFTEAVKADPEYANLNDVQIDSLHMGTWVVATGVAALMTSGIIHPSEEQIIHLMKDSIEAILERDEPIDIDL | soluble |
| MARLARFWDSLENENLFDIVPQPPKSTVTRFHQQWLSSLANARDDELQTILYAKPLLPTPESIVQLPDEEYYGAKKISVGYR | not soluble |
| MARNRLTESEMNEALRALDGWQKVDGREAITRSFKFKDFSTAFGFMAQAALYAEKLDHHPEWFNAYNRVDVTLATHSENGVTELDIKMARKMNAIAG | soluble |
| MARPIFSQEIDPYSQEVPKDVAISPSSKFDIYVEAPGEAPFEEADSPAMEYDRELAHHYSHKQLDFLEACSEKPSSKCGNEVFKNMLDETVPITDECCRDILKIGKDCHLGLVKLIFATYEYKNKASKGIPKSKQTWNECVFRVGSKIGAPVSFEQ | soluble |
| MARPLKEGLDYFPLDVDADYDDKFQLIETLHGPTGFAIMIKLFMKIYSQNFYYKWTETEQILFAKRVNVDINTLKTVVNDCIKYDLFDNNLFSEFQILTSLGVQERYFTAIGRRKKQIVVLEYLLLDRPEVINLCPKIVFANINVVNDDINAEQEELMPALSAQTKGKESKVNESKAVVSEQEKLPEKIVKEKPTTTAYKFWEENVAITGLSEFDRELLKKLISLGGNELTVHAMKKAIELNRRRMKTVDTVLRGWLDNGVKTTAEADEQEKNWNGGAKKNARAEPAKQEIKISDQYNFGATRTD | not soluble |
| MARPNFRYTHYDLKELRAGTTLEISLSSVNNVRLMTGANFQRFTELLDFKYLGGVAKKSPIRIAVPETMHWHLIIDAEGHSGLAESSVKMLPAQPQATLTRKAS | soluble |
| MARSIDYGNLMHRAMRGLIQSVLEDVAEHGLPGAHHFFITFDTTHPDVAMADWLRARYPQEMTVVIQHWYENLSADDHGFSVTLNFGNQPEPLVIPFDAVRTFVDPSVEFGLRFETHEEDEEEETGGDEDPDGDDEPPRHDAQVVSLDKFRKAAALEHHHHHH | soluble |
| MASAIWYYTVLVAESVLGIVGLRLYEEPAYTVLDRPSDTIEIRRYAPRVAAEVDLERRGNADGQAFTLLFNYIAGANRGGSGTSERVAMTVPVDVARPAKIAMTAPVETATQDRMTRMRFFLPATFTADTAPKPSDERVQIVTVPEQTIATLRFSGTGRDLREREQQLIAALANTPWQPVGAPYGLFYDAPFTLPFVRRNEAAVEVAKRLEHHHHHH | not soluble |
| MASATLPRFDLMGWDKKDIADPYPVYRRYREAAPVHRTASGPGKPDTYYVFTYDDVVRVLSNRRLGRNARVASGDTDTAPVPIPTEHRALRTVVENWLVFLDPPHHTELRSLLTTEFSPSIVTGLRPRIAELASALLDRLRAQRRPDLVEGFAAPLPILVISALLGIPEEDHTWLRANAVALQEASTTRARDGRGYARAEAASQEFTRYFRREVDRRGGDDRDDLLTLLVRARDTGSPLSVDGIVGTCVHLLTAGHETTTNFLAKAVLTLRAHRDVLDELRTTPESTPAAVEELMRYDPPVQAVTRWAYEDIRLGDHDIPRGSRVVALLGSANRDPARFPDPDVLDVHRAAERQVGFGLGIHYCLGATLARAEAEIGLRALLDGIPALGRGAHEVEYADDMVFHGPTRLLLDLPDAALEHHHHHH | soluble |
| MASETENIKYEESFIKNTRGMKLFTCKWVPAKQEPKALVFICHGYAMECSITMNSTARRLVKAGFAVYGIDYEGHGKSDGLSAYVPNFDHLVDDVSTHYTSICEKEENKGKMRFLLGESMGGAVLLLLHRKKPQFWDGAVLVAPMCKIAEEMKPSPLVISILAKLSGVIPSWKIIPGQDIIETAFKQPEIRKQVRENPYCYKGRPRLKTAYELLRVSTDLEKRLNEVSLPFIVLHGEDDKVTDKAVSRQLYEVASSSDKTFKLYPGMWHGLLYGETPENIETVFADIIGWLDKKVADESGGFESELKRKNDGIPLKG | soluble |
| MASFIPNLPSWAKHVDLKFRSALVLSQLFTKSWGHPDVIKQMAKYRRDVMSKRLVMDYVKELNPKIDIVKKYSKNGVTSYEGFFASPHATLFPNHMPGNVGRAHFRAYLPQKPGPVCIHLAGTGDHSYFRRHYLLVDDMLKDGVGSILIQNPFYGDRKPPNQFRSSLENVTDLFVMGAALIAECNHLFNWSETLGYGPFAISGVSMGGFMAQLAGSNSQRPISIVPILAWTTASPSYTEGAISPAVNYSLLQKQLEDPHYVDKIRRIPNQNWLDKMREMTARNGDSEAKNMMRILMDDFTSLEFYPTPIDTSLCHVFLADQDQYVLRNQGTPTYQQLWPNVTVEMMEGYGHVTAYLSKHDLWRRRITELLRRQQQKTI | not soluble |
| MASGDITRYVITVTFHEDSLTEINELNNHLTRSGFLLTLTDDEGDVHELGTNTFGFVSAQSADEIKALVAGLAKSALDKDVDITVATWEAWSKNAQ | not soluble |
| MASHMERDPQVAGLKVPPHSIEAEQSVLGGLMLDNERWDDVAERVVADDFYTRPHRHIFTEMARLQESGSPIDLITLAESLERQGQLDSVGGFAYLAELSKNTPSAANISAYADIVRER | soluble |
| MASIKEELISAAESESQVMQIVQAALEGIDMDALTSMTPGLPQTVRQTAINSLLSSKKLAIQQAPGGVLRLKVNTSEQIAGTEEEQVIYSLIEESKTRGIWIKELREGSGLNQLQLRKTLKSLETKKLIKTIKAVGTTRKCYILFSIEPDMSLTGGTFYSDQQLDSELINTLISVCGSYAASRRKHAIDENPNNIQMQREASYIRPQEIAQFITEKRVLNVPLSLEDLERILEVAVLDGTIERRADGKIRACPPRSSISPLVSVPCAICPVVEDCRPGYVISPQSCDYMKNWLADL | not soluble |
| MASIKSYKLKNGQERWEYFVSNGRSNGTGRQQKIHKRGFRSHKEALKAAKIIEGQIASEEFVKENPQKMTISKFMNIWINEYKNNVKEGSRIVYRDAIRMYIDPYIGNYQLNKYKPADHQKFINSLFTNKELGKSKNGLSYNTVKIVNAALSNAFKKAQKLGYIKSNPTYFVEFPLDKVKEKTNKEKKLEFYTLEQENLFLDTARNFDDFMWYVFFLIIFDLGLRKGEVMALRWFNFDFRDNILTFDKQRLYRKEQPGQVILDDVKTDAGKRSLKMTNRVRNSVLELYSINYDLTSNVLPMTNSNQDFLFINHRGKNVGLPIRQRSVDTAWHRIIQKANLPKIRIHDGRHTNAARLRQAGVPLEDIKDMLGHKNVKTTEIYAHVSPEVKERAVNKLELYQMQHKKSGN | not soluble |
| MASINWSEISTVLIDMDGTILDLHFDNHFWLEHLPARYSEKMSISLDAAKAKLKADYLSVVGTIKWYCLDYWAEQTQMPITELKREIQHLIQLRTDARDFLIALKASGRDVVLVTNAHPESLSLKIERTQLDQYFDVLYSTHDFGVTKESQLLWQRLQEKHGFDCDSTLFIDDSIEILQSAQQYGIKHLLAVANPDSKKTANVITDFPAITSFDLLTAQLSKELINSTSN | not soluble |
| MASKDKEINNTIDAIEDKNFKQVYKDSSYISKSDNGEVEMTERPIKIYNSLGVKDINIQDRKIKKVSKNKKRVDAQYKIKTNYGNIDRNVQFNFVKEDGMWKLDWDHSVIIPGMQKDQSIHIENLKSERGKILDRNNVELANTGTAYEIGIVPKNVSKKDYKAIAKELSISEDYIKQQMDQNWVQDDTFVPLKTVKKMDEYLSDFAKKFHLTTNETESRNYPLEKATSHLLGYVGPINSEELKQKEYKGYKDDAVIGKKGLEKLYDKKLQHEDGYRVTIVDDNSNTIAHTLIEKKKKDGKDIQLTIDAKVQKSIYNNMKNDYGSGTAIHPQTGELLALVSTPSYDVYPFMYGMSNEEYNKLTEDKKEPLLNKFQITTSPGSTQKILTAMIGLNNKTLDDKTSYKIDGKGWQKDKSWGGYNVTRYEVVNGNIDLKQAIESSDNIFFARVALELGSKKFEKGMKKLGVGEDIPSDYPFYNAQISNKNLDNEILLADSGYGQGEILINPVQILSIYSALENNGNINAPHLLKDTKNKVWKKNIISKENINLLTDGMQQVVNKTHKEDIYRSYANLIGKSGTAELKMKQGETGRQIGWFISYDKDNPNMMMAINVKDVQDKGMASYNAKISGKVYDELYENGNKKYDIDE | soluble |
| MASNMDREMILADFQACTGIENIDEAITLLEQNNWDLVAAINGVIPQENGILQSEYGGETIPGPAFNPASHPASAPTSSSSSAFRPVMPSRQIVERQPRMLDFRVEYRDRNVDVVLEDTCTVGEIKQILENELQIPVSKMLLKGWKTGDVEDSTVLKSLHLPKNNSLYVLTPDLPPPSSSSHAGALQESLNQNFMLIITHREVQREYNLNFSGSSTIQEVKRNVYDLTSIPVRHQLWEGWPTSATDDSMCLAESGLSYPCHRLTVGRRSSPAQTREQSEEQITDVHMVSDSDGDDFEDATEFGVDDGEVFGMASSALRKSPMMPENAENEGDALLQFTAEFSSRYGDCHPVFFIGSLEAAFQEAFYVKARDRKLLAIYLHHDESVLTNVFCSQMLCAESIVSYLSQNFITWAWDLTKDSNRARFLTMCNRHFGSVVAQTIRTQKTDQFPLFLIIMGKRSSNEVLNVIQGNTTVDELMMRLMAAMEIFTAQQQEDIKDEDEREARENVKREQDEAYRLSLEADRAKREAHEREMAEQFRLEQIRKEQEEEREAIRLSLEQALPPEPKEENAEPVSKLRIRTPSGEFLERRFLASNKLQIVFDFVASKGFPWDEYKLLSTFPRRDVTQLDPNKSLLEVKLFPQETLFLEAKE | soluble |
| MASPLYLHSSDGPENLITNVQLKGENYEDWAKHVRNASRTKQKLGFIDGTLEKPTKEDDMEQ | not soluble |
| MASTKDEVVRMSVDEYWEDIKDDYLIQLANTDPNEVYPSNNPGPTTADGQINFECHCVGHLVGSPCGFEFREAITCQKTNSDGEIEQGACGKELMSFMECVTRTQCFGTGDNDKK | not soluble |
